Positions count from the first letter of the chain named.
T1: Gla-domain deleted recombinant human Protein S (human, UniProt P07225 114-676)
T1 construct: also called hPS-dGla; desGla human Protein S
T1 sequence: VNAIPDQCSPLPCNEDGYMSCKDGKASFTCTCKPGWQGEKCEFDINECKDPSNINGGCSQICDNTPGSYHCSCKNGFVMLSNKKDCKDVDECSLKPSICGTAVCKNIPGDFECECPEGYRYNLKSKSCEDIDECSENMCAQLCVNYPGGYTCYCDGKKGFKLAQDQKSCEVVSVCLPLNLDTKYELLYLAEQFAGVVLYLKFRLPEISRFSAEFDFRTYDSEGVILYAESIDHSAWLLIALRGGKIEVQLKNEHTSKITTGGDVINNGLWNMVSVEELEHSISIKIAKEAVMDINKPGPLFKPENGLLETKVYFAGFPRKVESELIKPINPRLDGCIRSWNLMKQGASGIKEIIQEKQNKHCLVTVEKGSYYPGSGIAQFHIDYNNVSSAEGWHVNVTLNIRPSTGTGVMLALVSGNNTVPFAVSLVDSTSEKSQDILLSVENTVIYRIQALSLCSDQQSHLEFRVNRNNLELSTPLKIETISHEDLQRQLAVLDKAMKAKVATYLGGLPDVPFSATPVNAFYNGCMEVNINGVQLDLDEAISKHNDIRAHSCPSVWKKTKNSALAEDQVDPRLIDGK

T2: EGF1-4 domains of human Protein S with C-terminal HPC4 tag (human, UniProt P07225 114-286, partial hydroxylation of Asn or Asp in the EGF domains (detected by MS))
T2 construct: also called hEGF1-4; human Protein S EGF1-4
T2 sequence: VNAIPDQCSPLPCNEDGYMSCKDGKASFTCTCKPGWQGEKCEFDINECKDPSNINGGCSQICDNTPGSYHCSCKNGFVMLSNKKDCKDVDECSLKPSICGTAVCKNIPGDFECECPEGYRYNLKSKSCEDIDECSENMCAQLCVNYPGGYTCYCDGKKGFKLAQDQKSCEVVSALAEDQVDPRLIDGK

T3: EGF domain 3 and 4 of recombinant human Protein S (human, UniProt P07225 201-286, limits assumed)
T3 construct: domain: EGF domain 3 and 4; also called hEGF3-4
T3 sequence (looked up): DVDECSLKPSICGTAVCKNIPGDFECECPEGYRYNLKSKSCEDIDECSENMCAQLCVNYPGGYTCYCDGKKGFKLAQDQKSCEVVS

T4: EGF domain 1 and 2 of recombinant human Protein S (human, UniProt P07225 114-200, limits assumed)
T4 construct: domain: EGF domain 1 and 2; also called hEGF1-2
T4 sequence (looked up): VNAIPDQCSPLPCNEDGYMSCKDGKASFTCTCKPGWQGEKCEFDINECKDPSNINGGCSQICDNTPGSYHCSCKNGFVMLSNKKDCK

T5: C4b-Binding Protein (UniProt P04003 49-597; P20851 18-252)
T5 construct: Bought protein; also called C4BP; C4b-BP
T5 sequence (looked up) 1: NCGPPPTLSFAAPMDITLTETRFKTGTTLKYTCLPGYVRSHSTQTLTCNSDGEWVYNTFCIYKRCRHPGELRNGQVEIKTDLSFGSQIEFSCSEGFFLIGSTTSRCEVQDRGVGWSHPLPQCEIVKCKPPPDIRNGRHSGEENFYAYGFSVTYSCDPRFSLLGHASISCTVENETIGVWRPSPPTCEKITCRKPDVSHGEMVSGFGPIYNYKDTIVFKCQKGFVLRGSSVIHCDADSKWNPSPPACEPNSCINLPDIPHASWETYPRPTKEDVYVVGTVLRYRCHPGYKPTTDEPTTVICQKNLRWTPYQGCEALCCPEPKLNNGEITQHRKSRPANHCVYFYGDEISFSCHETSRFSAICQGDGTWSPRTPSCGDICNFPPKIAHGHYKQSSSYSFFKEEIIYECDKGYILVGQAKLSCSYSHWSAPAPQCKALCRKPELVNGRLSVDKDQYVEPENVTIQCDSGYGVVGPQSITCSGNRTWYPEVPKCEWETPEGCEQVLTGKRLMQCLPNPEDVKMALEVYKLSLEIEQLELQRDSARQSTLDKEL
T5 sequence (looked up) 2: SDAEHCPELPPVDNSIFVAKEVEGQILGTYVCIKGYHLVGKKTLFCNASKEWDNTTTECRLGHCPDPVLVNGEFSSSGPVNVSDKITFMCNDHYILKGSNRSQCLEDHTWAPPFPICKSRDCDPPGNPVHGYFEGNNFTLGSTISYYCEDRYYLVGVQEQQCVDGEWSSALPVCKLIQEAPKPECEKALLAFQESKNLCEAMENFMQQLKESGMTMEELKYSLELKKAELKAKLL

B1: M-hProtS-3F2A1 monoclonal antibody (antibody, V domains shown)
VH: EVQLQESGPSLVKPSQTLSLTCSVTGDSITSGYWNWIRKFPGNKLEYMGYISFSGSTYYNPSLKSRISITRDTSKNQYYLQLNSVTTEDTATYYCAREFAYWGQGTLVTVSA
VL: DIVLTQSPATLSVTPGDSVSLSCRASQSISNNLHWYQQKSHESPRLLIKFVSQSISGIPSRFSGSGSGTDFTLSINSVETEDFGMYFCQQSNSWPWTFGGGTKLEIKR
notes: Mouse IgG1, kappa
B2: M-hProtS-6F138A3 monoclonal antibody (antibody, V domains shown)
VH: QVHLKESGPGLVAPSQNLSITCTVSGFSLTGYGVSWVRQPPGKGLEWLGMIWGDGTTDYNSTLKSRLSISKDNSKSQVFLKMNSLQIDDTARYYCARDPGAMDYWGQGTSVTVSS
VL: QIVLTQSPAIMSASPGEKVTITCSATSSVTYMHWFQQKPGTSPKLWIFSTSNLASGVPPRFSGSGSGTSYSLTISRMEAEDAATYYCQQRSSYPPTFGGGTKLEIKR
notes: Mouse IgG1, kappa; also called 6F138A1/A3
B3: 0322-0000-1139 (Fab, V domains shown)
VH: QVQLQQPGAELVRPGASVKLSCKASGYTFTSYWINWVKQRPEQGLEWIGRIDPYDSETHYNQKFKDKAILTVDKSSSTAYMQLSSLTSEDSAVYYCARWGGSGYAMDYWGQGTSVTVSS
VL: QIVLSQSPAILSASPGEKVTMTCRASSSVSYMYWYQQKPGSSPKPWIYATSNLASGVPARFSGSGSGTSYSLTISRVEAEDAATYYCQQWSSIPPTFGGGTKLEIKR
notes: also called Fab 1139
B4: M-hProtS-2F82A1 monoclonal antibody (antibody, V domains shown)
VH: B3 VH with A9T, I34M, K38Q, S56T, K65E, G100A, G103S
VL: QIVLTQSPALMSASPGERVTMTCSASSSVSYMYWYQQKPRSSPKPWIYSTSNLASGVPARFSGSGSGTSYSLTISSMEAEDAATYYCQQWSSNPYTFGGGTKLEIKR
notes: Mouse IgG1, kappa; also called mAb 0017
B5: M-hProtS-6F170A2 monoclonal antibody (antibody, V domains shown)
VH: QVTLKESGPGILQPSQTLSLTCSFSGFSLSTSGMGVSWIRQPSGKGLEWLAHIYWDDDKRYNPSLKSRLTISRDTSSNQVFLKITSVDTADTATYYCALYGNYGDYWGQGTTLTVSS
VL: QIVLTQSPAIMSASPGEKVTMTCSASSSVSYMYWYQQKPGSSPRILIYDTSNLASGVPVRFSGSGSGTSYSLTISRMEAEDAATYYCQQWSSYPLTFGAGTKLELKR
notes: Mouse IgG1, kappa
B6: human Protein S (plasma derived) (other)
chain: ANSLLEETKQGNLERECIEELCNKEEAREVFENDPETDYFYPKYLVCLRSFQTGLFTAARQSTNAYPDLRSCVNAIPDQCSPLPCNEDGYMSCKDGKASFTCTCKPGWQGEKCEFDINECKDPSNINGGCSQICDNTPGSYHCSCKNGFVMLSNKKDCKDVDECSLKPSICGTAVCKNIPGDFECECPEGYRYNLKSKSCEDIDECSENMCAQLCVNYPGGYTCYCDGKKGFKLAQDQKSCEVVSVCLPLNLDTKYELLYLAEQFAGVVLYLKFRLPEISRFSAEFDFRTYDSEGVILYAESIDHSAWLLIALRGGKIEVQLKNEHTSKITTGGDVINNGLWNMVSVEELEHSISIKIAKEAVMDINKPGPLFKPENGLLETKVYFAGFPRKVESELIKPINPRLDGCIRSWNLMKQGASGIKEIIQEKQNKHCLVTVEKGSYYPGSGIAQFHIDYNNVSSAEGWHVNVTLNIRPSTGTGVMLALVSGNNTVPFAVSLVDSTSEKSQDILLSVENTVIYRIQALSLCSDQQSHLEFRVNRNNLELSTPLKIETISHEDLQRQLAVLDKAMKAKVATYLGGLPDVPFSATPVNAFYNGCMEVNINGVQLDLDEAISKHNDIRAHSCPSVWKKTKNS
notes: Bought plasma-derived human Protein S (Haematologic Technologies or Enzyme Research Laboratories); also called Plasma PS; free Protein S
B7: 0322-0000-0114 (antibody, V domains shown)
VH: EVKLEESGGGLVQPGGSMKLSCAASGFTFSDAWMDWVRQSPEKGLEWVAEIRSKANNHATYYAESVKGRFTISRDDSKSGVYLQMNSLRPEDTGIYYCTLTTAFLFDYWGQGTTLTVSS
VL: QIALTQSPAIMSASPGEKVTMTCSVSSSVSYMHWYQQKPGSSPRLWIYDTSNLVSGVPGRFSGSGSGTSYSLTLSSMEAEDAATYYCQQYSGYLYTFGGGTKLEIKR
notes: also called murine-human chimeric antibody of 2F4A1
B8: M-hProtS-2F4A1 monoclonal antibody (antibody, V domains shown)
VH: B7 VH
VL: B7 VL
notes: Mouse IgG1, kappa

Legend:
[1] = target: T1, Gla-domain deleted recombinant human …; assay: ELISA, calcium-free TBS;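 further: binding of mouse antibodies detected by ELISA with an HRP-conjugated goat anti-mouse IgG secondary and TMB substrate development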
Method: (§1) After incubation and washing a HRP-labelled goat-anti-mouse IgG secondary antibody (Jackson) was added and the ELISA was developed after incubation and wash by addition of 3,3′,5,5′-Tetramethylbenzidine.

[2] = target: T2, EGF1-4 domains of human Protein S with …; assay: ELISA, calcium-free TBS;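 further: binding of mouse antibodies detected by ELISA with an HRP-conjugated goat anti-mouse IgG secondary and TMB substrate development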
Method: as §1

[3] = target: B6; assay: ELISA, calcium-free TBS;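 further: binding of mouse antibodies detected by ELISA with an HRP-conjugated goat anti-mouse IgG secondary and TMB substrate development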
Method: as §1

[4] = target: T3, EGF domain 3 and 4 of recombinant human …; assay: ELISA, recombinant antibody
[5] = target: T3, EGF domain 3 and 4 of recombinant human …; assay: ELISA, calcium-free TBS;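 further: binding of mouse antibodies detected by ELISA with an HRP-conjugated goat anti-mouse IgG secondary and TMB substrate development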
Method: as §1

[6] = target: T1, Gla-domain deleted recombinant human …; assay: ELISA, recombinant antibody
[7] = target: T2, EGF1-4 domains of human Protein S with …; assay: ELISA, recombinant antibody
[8] = target: B6; assay: ELISA, recombinant antibody
[9] = target: B6; assay: SPR (Biacore T200), Fab on Protein S captured on C4BP
Method: (§2) In brief, a polyclonal anti-C4BP antibody targeting the alpha chain (ab83755 from abcam) was immobilized on a CM5 Biacore sensor chip by standard amine coupling chemistry. […] The experiment was conducted in 10 mM Hepes, pH 7.4; 150 mM NaCl; 10 M CaCl₂ supplemented with 0.005% Tween20 and the chip was regenerated with glycine-HCl pH 1.7.

[10] = target: T4, EGF domain 1 and 2 of recombinant human …; assay: ELISA, calcium-free TBS
Method: as §1

C4b-Binding Protein = target: T5, C4b-Binding Protein; assay: SPR (Biacore T200), C4BP captured by immobilized polyclonal anti-C4BP alpha chain antibody
Method: as §2

[11] = target: T2, EGF1-4 domains of human Protein S with …; assay: HX-MS, 4 uM EGF1-4 with 2.4 uM mAb
Method: The HX experiments were performed on a nanoACQUITY UPLC System with HDX Technology (Waters Inc.) coupled to a Synapt G2 mass spectrometer (Waters Inc.). The Waters HDX system contained a Leap robot (H/D-x PAL; Waters Inc.) operated by the LeapShell software (Leap Technologies Inc/Waters Inc.), which performed initiation of the deuterium exchange reaction, reaction time control, quench reaction, injection onto the UPLC system and digestion time control. The Leap robot was equipped with two temperature controlled stacks maintained at 20° C. for buffer storage and HX reactions and maintained at 2° C. for storage of protein and quench solution, respectively. The Waters HDX system furthermore contained a temperature controlled chamber holding the pre- and analytical columns, and the LC tubing and switching valves at 0.5° C. A separately temperature controlled chamber holds the pepsin column at 25° C. […] The resulting peptides were trapped and desalted on a VanGuard pre-column BEH C18 1.7 μm (2.1×5 mm (Waters Inc.)). Subsequently, the valves were switched to place the pre-column inline with the analytical column, UPLC-BEH C18 1.7 μm (1×100 mm (Waters Inc.)), and the peptides separated using a 9 min gradient of 10-50% B delivered at 40 μl/min from the nanoAQUITY UPLC system (Waters Inc.). The mobile phases consisted of A: 0.1% formic acid and B: 0.1% formic acid in CH₃CN. […]

[12] = target: B6; assay: SPR (Biacore 3000), Protein S captured on phosphatidylserine vesicles on L1 chip, mAb 250 nM

Binder: B1
- binding result [1]: binds
- binding result [2]: binds
- binding result [3]: binds
- binding result [4]: no binding

Binder: B2
- binding result [5]: no binding
- binding result [6]: binds
- binding result [7]: binds
- binding result [8]: binds

Binder: B3
- Kd [9]: 10 nM

Binder: B4
- binding result [1]: binds
- binding result [2]: binds
- binding result [3]: binds
- binding result [4]: no binding

Binder: B5
- binding result [10]: no binding
- binding result [6]: binds
- binding result [7]: binds
- binding result [8]: binds

Binder: B6
- Kd (C4b-Binding Protein): 2 nM

Binder: B7
- binding result [11]: binds
- binding result [12]: binds

Binder: B8
- binding result [1]: binds
- binding result [2]: binds
- binding result [3]: binds
- binding result [4]: no binding
